“And” between values parts separate entries of the source, which are not always exact repeats. Equal entries are not always repeated.
Experiments:
Human Factor B = Human Factor B (human, UniProt P00751 26-764); experiment: cell-based or functional assay
[1] = molecular target: T1, Plasma antichymotrypsin (ACT) (UniProt P01011 24-423); experiment: serpin inhibition of the protease
T1 construct: also called plasma ACT
T1 sequence (looked up): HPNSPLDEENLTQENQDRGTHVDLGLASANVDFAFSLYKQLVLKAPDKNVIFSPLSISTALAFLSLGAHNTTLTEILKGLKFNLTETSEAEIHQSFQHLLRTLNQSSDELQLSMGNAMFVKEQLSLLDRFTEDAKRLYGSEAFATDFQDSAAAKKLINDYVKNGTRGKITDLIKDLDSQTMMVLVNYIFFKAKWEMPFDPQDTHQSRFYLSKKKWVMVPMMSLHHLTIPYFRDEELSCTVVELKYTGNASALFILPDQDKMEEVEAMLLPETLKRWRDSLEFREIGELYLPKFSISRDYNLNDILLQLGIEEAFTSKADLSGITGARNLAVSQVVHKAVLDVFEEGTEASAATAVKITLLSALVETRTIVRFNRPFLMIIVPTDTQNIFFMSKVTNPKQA

Sequence of Human Factor B (P00751 26-764 limits assumed): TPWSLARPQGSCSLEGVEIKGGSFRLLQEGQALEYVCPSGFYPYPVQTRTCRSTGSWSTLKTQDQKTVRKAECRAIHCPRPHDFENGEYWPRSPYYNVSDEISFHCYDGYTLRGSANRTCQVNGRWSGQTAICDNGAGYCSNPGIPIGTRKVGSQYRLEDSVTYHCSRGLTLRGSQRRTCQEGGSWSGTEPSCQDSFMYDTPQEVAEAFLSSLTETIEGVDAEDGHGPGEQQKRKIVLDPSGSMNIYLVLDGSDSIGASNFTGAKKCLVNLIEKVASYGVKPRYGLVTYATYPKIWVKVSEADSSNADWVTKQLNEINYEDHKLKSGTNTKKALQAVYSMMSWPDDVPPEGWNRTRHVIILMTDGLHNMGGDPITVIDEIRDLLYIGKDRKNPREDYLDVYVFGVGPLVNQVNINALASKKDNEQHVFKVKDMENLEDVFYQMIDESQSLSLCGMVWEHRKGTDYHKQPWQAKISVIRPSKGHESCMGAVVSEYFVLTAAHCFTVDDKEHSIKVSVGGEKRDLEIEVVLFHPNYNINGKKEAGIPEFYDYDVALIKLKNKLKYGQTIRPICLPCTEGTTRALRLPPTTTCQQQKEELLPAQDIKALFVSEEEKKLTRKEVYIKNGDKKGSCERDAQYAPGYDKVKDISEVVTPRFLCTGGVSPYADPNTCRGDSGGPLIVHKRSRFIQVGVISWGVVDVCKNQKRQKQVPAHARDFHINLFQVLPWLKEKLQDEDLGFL

B1: chymase C22S/K40L/F41K/L99N/F173Y/S218L/A226R (enzyme)
chain: IIGGTESKPHSRPYMAYLEIVTSNGPSLKCGGFLIRRNFVLTAAHCAGRSITVTLGAHNITEEEDTWQKLEVIKQFRHPKYNTSTNHHDIMLLKLKEKASLTLAVGTLPFPSQFNFVPPGRMCRVAGWGRTGVLKPGSDTLQEVKLRLMDPQACSHYRDFDHNLQLCVGNPRKTKSAFKGDSGGPLLCAGVAQGIVSYGRLDAKPPRVFTRISHYRPWINQILQAN
B1 was tested, and the “fB Cleavage, 80% plasma EC50” value (Human Factor B) was 14 µM and the kapp [1] was 197 M⁻¹ s⁻¹.

B2: chymase C22S/F41V/L99W/G151L/F173K/R217S/A226R (enzyme)
chain: IIGGTESKPHSRPYMAYLEIVTSNGPSKVCGGFLIRRNFVLTAAHCAGRSITVTLGAHNITEEEDTWQKLEVIKQFRHPKYNTSTWHHDIMLLKLKEKASLTLAVGTLPFPSQFNFVPPGRMCRVAGWGRTGVLKPLSDTLQEVKLRLMDPQACSHKRDFDHNLQLCVGNPRKTKSAFKGDSGGPLLCAGVAQGIVSYGSSDAKPPRVFTRISHYRPWINQILQAN
For B2, the “fB Cleavage EC50” value (Human Factor B) was 1.94 µM.

B3: chymase F41V/L99H/G151V/F173Y/Y215K/R217G/A226R (enzyme)
chain: IIGGTECKPHSRPYMAYLEIVTSNGPSKVCGGFLIRRNFVLTAAHCAGRSITVTLGAHNITEEEDTWQKLEVIKQFRHPKYNTSTHHHDIMLLKLKEKASLTLAVGTLPFPSQFNFVPPGRMCRVAGWGRTGVLKPVSDTLQEVKLRLMDPQACSHYRDFDHNLQLCVGNPRKTKSAFKGDSGGPLLCAGVAQGIVSKGGSDAKPPRVFTRISHYRPWINQILQAN
For B3, the “fB Cleavage EC50” value (Human Factor B) was 7.77 µM.

B4: chymase C22S/F41R/L99G/G151T/F173Y/Y215R/R217M/A226R (enzyme)
chain: IIGGTESKPHSRPYMAYLEIVTSNGPSKRCGGFLIRRNFVLTAAHCAGRSITVTLGAHNITEEEDTWQKLEVIKQFRHPKYNTSTGHHDIMLLKLKEKASLTLAVGTLPFPSQFNFVPPGRMCRVAGWGRTGVLKPTSDTLQEVKLRLMDPQACSHYRDFDHNLQLCVGNPRKTKSAFKGDSGGPLLCAGVAQGIVSRGMSDAKPPRVFTRISHYRPWINQILQAN
With B4 the “fB Cleavage EC50” value (Human Factor B) was 4.33 µM.

B5: chymase C22S/L99Y/F173Y/K192R/S218L/A226R (enzyme)
chain: IIGGTESKPHSRPYMAYLEIVTSNGPSKFCGGFLIRRNFVLTAAHCAGRSITVTLGAHNITEEEDTWQKLEVIKQFRHPKYNTSTYHHDIMLLKLKEKASLTLAVGTLPFPSQFNFVPPGRMCRVAGWGRTGVLKPGSDTLQEVKLRLMDPQACSHYRDFDHNLQLCVGNPRKTKSAFRGDSGGPLLCAGVAQGIVSYGRLDAKPPRVFTRISHYRPWINQILQAN
For B5, the “fB Cleavage EC50” value (Human Factor B) was 1.02 µM.

B6: chymase C22S/L99H/F173I/K192R/Y215K/R217T/S218I/A226R (enzyme)
chain: IIGGTESKPHSRPYMAYLEIVTSNGPSKFCGGFLIRRNFVLTAAHCAGRSITVTLGAHNITEEEDTWQKLEVIKQFRHPKYNTSTHHHDIMLLKLKEKASLTLAVGTLPFPSQFNFVPPGRMCRVAGWGRTGVLKPGSDTLQEVKLRLMDPQACSHIRDFDHNLQLCVGNPRKTKSAFRGDSGGPLLCAGVAQGIVSKGTIDAKPPRVFTRISHYRPWINQILQAN
For B6, the “fB Cleavage EC50” value (Human Factor B) was 5.62 µM.

B7: chymase C22S/L99H/F173L/K192R/Y215H/R217T/S218V/A226R (enzyme)
chain: IIGGTESKPHSRPYMAYLEIVTSNGPSKFCGGFLIRRNFVLTAAHCAGRSITVTLGAHNITEEEDTWQKLEVIKQFRHPKYNTSTHHHDIMLLKLKEKASLTLAVGTLPFPSQFNFVPPGRMCRVAGWGRTGVLKPGSDTLQEVKLRLMDPQACSHLRDFDHNLQLCVGNPRKTKSAFRGDSGGPLLCAGVAQGIVSHGTVDAKPPRVFTRISHYRPWINQILQAN
With B7 the “fB Cleavage EC50” value (Human Factor B) was 7.77 µM and 2.74 µM.

B8: chymase C22S/F41I/L99W/G151L/F173K/R217S/A226R (enzyme)
chain: IIGGTESKPHSRPYMAYLEIVTSNGPSKICGGFLIRRNFVLTAAHCAGRSITVTLGAHNITEEEDTWQKLEVIKQFRHPKYNTSTWHHDIMLLKLKEKASLTLAVGTLPFPSQFNFVPPGRMCRVAGWGRTGVLKPLSDTLQEVKLRLMDPQACSHKRDFDHNLQLCVGNPRKTKSAFKGDSGGPLLCAGVAQGIVSYGSSDAKPPRVFTRISHYRPWINQILQAN
For B8, the “fB Cleavage EC50” value (Human Factor B) was 1.74 µM.

B9: chymase C22S/K192R/A226R (enzyme)
chain: IIGGTESKPHSRPYMAYLEIVTSNGPSKFCGGFLIRRNFVLTAAHCAGRSITVTLGAHNITEEEDTWQKLEVIKQFRHPKYNTSTLHHDIMLLKLKEKASLTLAVGTLPFPSQFNFVPPGRMCRVAGWGRTGVLKPGSDTLQEVKLRLMDPQACSHFRDFDHNLQLCVGNPRKTKSAFRGDSGGPLLCAGVAQGIVSYGRSDAKPPRVFTRISHYRPWINQILQAN
In the case of B9, the “fB Cleavage EC50” value (Human Factor B) is reported as 6.37 µM.

B10: chymase C22S/F41R/L99H/G151T/F173Y/Y215K/R217M/A226R (enzyme)
chain: IIGGTESKPHSRPYMAYLEIVTSNGPSKRCGGFLIRRNFVLTAAHCAGRSITVTLGAHNITEEEDTWQKLEVIKQFRHPKYNTSTHHHDIMLLKLKEKASLTLAVGTLPFPSQFNFVPPGRMCRVAGWGRTGVLKPTSDTLQEVKLRLMDPQACSHYRDFDHNLQLCVGNPRKTKSAFKGDSGGPLLCAGVAQGIVSKGMSDAKPPRVFTRISHYRPWINQILQAN
For B10, the “fB Cleavage EC50” value (Human Factor B) was 1.69 µM.

B11: chymase C22S/F41V/L99F/G151R/F173K/R217S/A226R (enzyme)
chain: IIGGTESKPHSRPYMAYLEIVTSNGPSKVCGGFLIRRNFVLTAAHCAGRSITVTLGAHNITEEEDTWQKLEVIKQFRHPKYNTSTFHHDIMLLKLKEKASLTLAVGTLPFPSQFNFVPPGRMCRVAGWGRTGVLKPRSDTLQEVKLRLMDPQACSHKRDFDHNLQLCVGNPRKTKSAFKGDSGGPLLCAGVAQGIVSYGSSDAKPPRVFTRISHYRPWINQILQAN
With B11 the “fB Cleavage EC50” value (Human Factor B) was 3.65 µM.

B12: chymase C22S/L99H/F173Y/K192R/S218L/A226R (enzyme)
chain: IIGGTESKPHSRPYMAYLEIVTSNGPSKFCGGFLIRRNFVLTAAHCAGRSITVTLGAHNITEEEDTWQKLEVIKQFRHPKYNTSTHHHDIMLLKLKEKASLTLAVGTLPFPSQFNFVPPGRMCRVAGWGRTGVLKPGSDTLQEVKLRLMDPQACSHYRDFDHNLQLCVGNPRKTKSAFRGDSGGPLLCAGVAQGIVSYGRLDAKPPRVFTRISHYRPWINQILQAN
B12 was tested, and the “fB Cleavage EC50” value (Human Factor B) was 1.15 µM.

B13: chymase C22S/F41V/L99H/G151R/F173L/Y215R/R217T/A226R (enzyme)
chain: IIGGTESKPHSRPYMAYLEIVTSNGPSKVCGGFLIRRNFVLTAAHCAGRSITVTLGAHNITEEEDTWQKLEVIKQFRHPKYNTSTHHHDIMLLKLKEKASLTLAVGTLPFPSQFNFVPPGRMCRVAGWGRTGVLKPRSDTLQEVKLRLMDPQACSHLRDFDHNLQLCVGNPRKTKSAFKGDSGGPLLCAGVAQGIVSRGTSDAKPPRVFTRISHYRPWINQILQAN
In the case of B13, the “fB Cleavage EC50” value (Human Factor B) is reported as 8.06 µM.

B14: chymase C22S/F41R/L99Y/G151T/F173K/R217S/A226R (enzyme)
chain: IIGGTESKPHSRPYMAYLEIVTSNGPSKRCGGFLIRRNFVLTAAHCAGRSITVTLGAHNITEEEDTWQKLEVIKQFRHPKYNTSTYHHDIMLLKLKEKASLTLAVGTLPFPSQFNFVPPGRMCRVAGWGRTGVLKPTSDTLQEVKLRLMDPQACSHKRDFDHNLQLCVGNPRKTKSAFKGDSGGPLLCAGVAQGIVSYGSSDAKPPRVFTRISHYRPWINQILQAN
With B14 the “fB Cleavage EC50” value (Human Factor B) was 3.45 µM.

B15: chymase C22S (enzyme)
chain: IIGGTESKPHSRPYMAYLEIVTSNGPSKFCGGFLIRRNFVLTAAHCAGRSITVTLGAHNITEEEDTWQKLEVIKQFRHPKYNTSTLHHDIMLLKLKEKASLTLAVGTLPFPSQFNFVPPGRMCRVAGWGRTGVLKPGSDTLQEVKLRLMDPQACSHFRDFDHNLQLCVGNPRKTKSAFKGDSGGPLLCAGVAQGIVSYGRSDAKPPAVFTRISHYRPWINQILQAN
notes: For all chymase variants: mutation names are in chymotrypsin numbering
With B15 the “fB Cleavage EC50” value (Human Factor B) was 0.265 µM, the “fB Cleavage, 64% A2M-depl plasma EC50” value (Human Factor B) was 1520 nM and the “fB Cleavage, 64% plasma EC50” value (Human Factor B) was 7.88 µM. For the same binder, the “fB Cleavage, 80% plasma EC50” value (Human Factor B) was 10.2 µM and the kapp [1] was 31200 M⁻¹ s⁻¹.

B16: chymase C22S/P38Q/V138I/V183I/L199V/A226R/F228V (enzyme)
chain: IIGGTESKPHSRPYMAYLEIVTSNGQSKFCGGFLIRRNFVLTAAHCAGRSITVTLGAHNITEEEDTWQKLEVIKQFRHPKYNTSTLHHDIMLLKLKEKASLTLAVGTLPFPSQFNFVPPGRMCRIAGWGRTGVLKPGSDTLQEVKLRLMDPQACSHFRDFDHNLQLCIGNPRKTKSAFKGDSGGPVLCAGVAQGIVSYGRSDAKPPRVVTRISHYRPWINQILQAN
B16 showed a kapp [1] of 269 M⁻¹ s⁻¹.

B17: chymase C22S/F173Y/D175N/A226R (enzyme)
chain: IIGGTESKPHSRPYMAYLEIVTSNGPSKFCGGFLIRRNFVLTAAHCAGRSITVTLGAHNITEEEDTWQKLEVIKQFRHPKYNTSTLHHDIMLLKLKEKASLTLAVGTLPFPSQFNFVPPGRMCRVAGWGRTGVLKPGSDTLQEVKLRLMDPQACSHYRNFDHNLQLCVGNPRKTKSAFKGDSGGPLLCAGVAQGIVSYGRSDAKPPRVFTRISHYRPWINQILQAN
notes: also called MS No. 18
With B17 the “fB Cleavage, 64% A2M-depl plasma EC50” value (Human Factor B) was 1650 nM, the “fB Cleavage, 80% plasma EC50” value (Human Factor B) was 11.2 µM and the kapp [1] was 428 M⁻¹ s⁻¹.

B18: chymase C22S/A226R (enzyme)
chain: IIGGTESKPHSRPYMAYLEIVTSNGPSKFCGGFLIRRNFVLTAAHCAGRSITVTLGAHNITEEEDTWQKLEVIKQFRHPKYNTSTLHHDIMLLKLKEKASLTLAVGTLPFPSQFNFVPPGRMCRVAGWGRTGVLKPGSDTLQEVKLRLMDPQACSHFRDFDHNLQLCVGNPRKTKSAFKGDSGGPLLCAGVAQGIVSYGRSDAKPPRVFTRISHYRPWINQILQAN
B18 was tested, and the “fB Cleavage EC50” value (Human Factor B) was 5.21 µM and the kapp [1] was 1040 M⁻¹ s⁻¹.

B19: chymase C22S/A190S/A226R (enzyme)
chain: IIGGTESKPHSRPYMAYLEIVTSNGPSKFCGGFLIRRNFVLTAAHCAGRSITVTLGAHNITEEEDTWQKLEVIKQFRHPKYNTSTLHHDIMLLKLKEKASLTLAVGTLPFPSQFNFVPPGRMCRVAGWGRTGVLKPGSDTLQEVKLRLMDPQACSHFRDFDHNLQLCVGNPRKTKSSFKGDSGGPLLCAGVAQGIVSYGRSDAKPPRVFTRISHYRPWINQILQAN
B19 was tested, and the “fB Cleavage EC50” value (Human Factor B) was 0.407 µM and the kapp [1] was 1600 M⁻¹ s⁻¹.

From patent US20240117334A1 (VERTEX PHARMACEUTICALS, published 2024)
